Laboratory results: publication PMC2943039

Molecular target: PCNA (Proliferating Cell Nuclear Antigen) (UniProt P12004)
Test: PCNA-bead pull-down, anti-FEN1 blot
Conditions: reference: wild type, kinase-treated; sites S187

binding against the reference: stronger
Substance: FEN1 (flap endonuclease 1) (from UniProt P39748) S187A, kinase-treated
